Measured values from PMC7229662 (Proceedings of the National Academy of Sciences of the …, 2020).

Target: the molecule itself
Assay: cryo-EM structure

B1: C331S variant of polycystin-2 (residues 53 to 792) (natural protein, human, UniProt Q13563 53-792, looked up)
chain: EIEMQRIRQAAARDPPAGAAASPSPPLSSCSRQAWSRDNPGFEAEEEEEEVEGEEGGMVVEMDVEWRPGSRRSAASSAVSSVGARSRGLGGYHGAGHPSGRRRRREDQGPPCPSPVGGGDPLHRHLPLEGQPPRVAWAERLVRGLRGLWGTRLMEESSTNREKYLKSVLRELVTYLLFLIVLCILTYGMMSSNVYYYTRMMSQLFLDTPVSKTEKTNFKTLSSMEDFWKFTEGSLLDGLYWKMQPSNQTEADNRSFIFYENLLLGVPRIRQLRVRNGSSSIPQDLRDEIKECYDVYSVSSEDRAPFGPRNGTAWIYTSEKDLNGSSHWGIIATYSGAGYYLDLSRTREETAAQVASLKKNVWLDRGTRATFIDFSVYNANINLFCVVRLLVEFPATGGVIPSWQFQPLKLIRYVTTFDFFLAACEIIFCFFIFYYVVEEILEIRIHKLHYFRSFWNCLDVVIVVLSVVAIGINIYRTSNVEVLLQFLEDQNTFPNFEHLAYWQIQFNNIAAVTVFFVWIKLFKFINFNRTMSQLSTTMSRCAKDLFGFAIMFFIIFLAYAQLAYLVFGTQVDDFSTFQECIFTQFRIILGDINFAEIEEANRVLGPIYFTTFVFFMFFILLNMFLAIINDTYSEVKSDLAQQKAEMELSDLIRKGYHKALVKLKLKKNTVDDISESLRQGGGKLNFDELRQDLKGKGHTDAEIEAIFTKYDQDGDQELTEHEHQQMRDDLEKEREDLDLD
With B1 the “stoichiometry N” value was 4.
